# Test results published in publication PMC10576003 (Nature Communications, 2023).
# B1: nanobody H2 (Nb_H2) (VHH)
# VHH: QGQLVESGGGLVQPGGSLRLSCADAGSIFNKFPMAWYRQAPGKERELVARISSGGSTNYADFVKGRFTISRDNAKSTLYLQMNSLKPEDTAMYYCARIINSASNIAYWGQGTRVTVSA
# notes: alpaca-derived nanobody selected by phage display against MHAS2168; they are in PDB 8PNL chain B (and chain D); MBP and His-tag removed with 3C protease; not shown: His10, N-terminal, cleaved
# B2: MHAS2168 (natural protein, Mycobacterium hassiacum)
# chain: MSAFPQTPNRLIRPRRTSRGIAISAGGLAVLLGALDTYVVVSIVTDIMRDVGIAVNQIQRVTPIITGYLLGYIAAMPLLGRASDRFGRKLLIQISLAGFALGSVITALATNLDVLVAGRVIQGAASGALLPVTLALAADLWATHKRAAVLGGVGAAQELGAVLGPIYGIFVVWLFHHWQAVFWVNVPLALIAMVLIHISLPPRVRTEEPQRVDVTGGLLLALALGLATIGLYNAEPDGKQVLPEYGPPLIIGAVIAAVAFLVWERFARTRLLDPAGVRFRPFLIALLVSLVTGGALMVTLVNVELFGQGVLGLDQDEAVFLLARFLIALPVGALLGGWIATRVGDRAVTAVGLLIAAGGFYLIAQWPADVLESRHDLGFVSLPTLDTDLAIAGFGLGLVIAPLTSAALRVVPAAQHGIASAAVVVARMIGMLIGIAALSAWGLYRFNQYLKEQLAALPPAPADFPGGQMAGQMMRLRTATVQAYVLQYGEIFAITAGLCVFGAVLGLFIAGRREHAEESADAVDGVSNARDRAPSA
# notes: C-terminal fusion: 3C protease cleavage site, GFP, His10; residues of the 3C site may be left after cleavage; also called Rv1410 homologue from Mycobacterium hassiacum; MHAS2168^OUT; not shown: GFP, C-terminal, cleaved; His10, C-terminal, cleaved
# Assays:
# MHAS2168 = target: B2; test: crystal structure; […]) at 20 °C; […]; conditions: both partners purified
# megabody H2 (Mb_H2) = target: T1, megabody H2 (Mb_H2) ( | alpaca); test: cryo-EM structure; conditions: both partners purified
# T1 construct: the first thirteen N-terminal residues that form the β-strand A of a nanobody, encoded by the vector pBXMBQ; not shown: His10, C-terminal, cleaved
Binder,binding result (MHAS2168),binding result (megabody H2 (Mb_H2))
B1,binds,–
B2,–,binds
